Results reported in PMC6102232 (2018).

T1: NCBD2 NCBD (Mus musculus, UniProt P45481)
T1 chain: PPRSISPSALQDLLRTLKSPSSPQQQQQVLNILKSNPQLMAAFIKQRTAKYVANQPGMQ

T2: NCBD1 NCBD (Mus musculus, UniProt P45481)
T2 chain: T1 chain

B1: ACTR ACTR (protein)
chain: GTQNRPLLRNSLDDLVGPPSNLEGQSDERALLDQLHTLLSNTDATGLEEIDRALGIPELVNQGQALEPKQD

Columns and labels:
[1] = target: ACTR-Avi (Avi-tagged, biotinylated, Cy3B-labelled ACTR) (human); assay: FRET or BRET
NCBD2 NCBD = target: T1, NCBD2 NCBD
NCBD1 NCBD = target: T2, NCBD1 NCBD

Row | Molecule | kon [1] | Kd (NCBD2 NCBD) | Kd (NCBD1 NCBD)
1 | NCBD wt (single-cysteine variant labelled with CF680R) (domain or fragment) | 2.9e+08 M⁻¹ s⁻¹ |  | 
2 | B1 |  | 650 nM | 78 nM
